Laboratory results published in the supplement of paper PMC7877785.
± gives the uncertainty stated by the source.

Experiment: self-splicing fitness, log relative to wild type (ln ratio); higher = more splicing; Tetrahymena group I intron in knt gene, E. coli kanamycin selection, DiMSum; sequences stand for … in CUCUCU…GGAGGGAAAAGUUAUCAGGCAUGCACCUGGUAGCUAGUCUUUAAACCAAUAGAUUGCAUCGGUUUAAAAGGCAAGACCGUCAAAUUGCGGGAAAGGGGUCAACAGCCGUUCAGUACCAAGUCUCAGGGGAAACUUUGAGAUGGCCUUGCAAAGGGUAUGGUAAUAAGCUGACGGACAUGGUCCUAACCACGCAGCCAAGUCCUAAGUCAACAGAUCUUCUGUUGAUAUGGAUGCAGUUCACAGACUAAAUGUCGGUCGGGGAAGAUGUAUUCUUCUCAUAAGAUAUAGUCGGACCUCUCCUUAAUGGGAGCUAGCGGAUGAAGUGAUGCAACACUGGAGCCGCUGGGAACUAAUUUGUAUGCGAAAGUAUAUUGAUUAGUUUUGGAGUACUCGUGGUCG
How it was run: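 The eight P1ex-region nucleotides of an intron in the knt kanamycin-resistance gene on pET-22b(+) were all randomised and the library put into E. coli BL21(DE3). Six replicate transformations were grown overnight at 37°C or 30°C on LB agar with or without 25 μg/mL kanamycin, together with 100 μg/mL carbenicillin, 50 μM IPTG and 0.2% rhamnose. Colonies were pooled and amplicon-sequenced on an Illumina HiSeq 2500. Fitness from DiMSum is the error-weighted combination of wild-type-normalised replicate fold changes, kanamycin over none.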

Which results are given for GGGAAGCAAUAUUACGAACU?
self-splicing fitness (ln) (30 °C): -2.22 ± 0.26; self-splicing fitness (ln) (37 °C): 1.13 ± 0.33

For GAGUAGCAAUAUUACGUCGC, which “self-splicing fitness (ln)” value (30 °C) is on record?
Its value is -1.31 ± 0.22.

And the “self-splicing fitness (ln)” value (37 °C)?
The value was -1.42 ± 0.26.

Which results are given for UUAGAGCAAUAUUACGGGUA?
self-splicing fitness (ln) (30 °C): -3.06 ± 0.22; self-splicing fitness (ln) (37 °C): -1.62 ± 0.19

For UCACAGCAAUAUUACGUAUU, which “self-splicing fitness (ln)” value (30 °C) is on record?
Its value is -3.5 ± 0.15.

And the “self-splicing fitness (ln)” value (37 °C)?
The value was -2.54 ± 0.14.

What does the source list for CAACAGCAAUAUUACGUUUC?
self-splicing fitness (ln) (30 °C): -3.28 ± 0.14; self-splicing fitness (ln) (37 °C): -2.33 ± 0.16

With GGCAAGCAAUAUUACGACGG as the sequence, how does the “self-splicing fitness (ln)” value (30 °C) read?
Its value is -2.85 ± 0.16.

And the “self-splicing fitness (ln)” value (37 °C)?
Its value is -2.72 ± 0.2.

For GUUAAGCAAUAUUACGGGAG, which “self-splicing fitness (ln)” value (30 °C) is on record?
Its value is -3.17 ± 0.14.

And the “self-splicing fitness (ln)” value (37 °C)?
Its value is -1.63 ± 0.097.

With GCUGAGCAAUAUUACGGAUG as the sequence, how does the “self-splicing fitness (ln)” value (30 °C) read?
Its value is -3.53 ± 0.18.

What about the “self-splicing fitness (ln)” value (37 °C) of the same sequence?
Its value is -1.22 ± 0.12.

Which “self-splicing fitness (ln)” value (30 °C) does the source give for UGACAGCAAUAUUACGUUGC here?
Its value is -3.03 ± 0.2.

What about the “self-splicing fitness (ln)” value (37 °C) of the same sequence?
The value was -2.89 ± 0.23.

For GUAGAGCAAUAUUACGGAGG, which “self-splicing fitness (ln)” value (37 °C) is on record?
Its value is -1.69 ± 0.43.

What does the source list for UGUCAGCAAUAUUACGAACU?
self-splicing fitness (ln) (30 °C): -0.744 ± 0.086; self-splicing fitness (ln) (37 °C): -0.0942 ± 0.086

Which “self-splicing fitness (ln)” value (30 °C) does the source give for GGUGAGCAAUAUUACGUUGG here?
Its value is -3.52 ± 0.32.

What about the “self-splicing fitness (ln)” value (37 °C) of the same sequence?
Its value is -0.982 ± 0.36.

Which “self-splicing fitness (ln)” value (30 °C) does the source give for AGGGAGCAAUAUUACGUCGU here?
Its value is -4.4 ± 0.46.

What about the “self-splicing fitness (ln)” value (37 °C) of the same sequence?
The value was -2.46 ± 0.33.

For GCCCAGCAAUAUUACGCCUU, which “self-splicing fitness (ln)” value (30 °C) is on record?
The value was -1.02 ± 0.081.

What about the “self-splicing fitness (ln)” value (37 °C) of the same sequence?
Its value is 0.189 ± 0.088.

What does the source list for AACAAGCAAUAUUACGAUAA?
self-splicing fitness (ln) (30 °C): -1.62 ± 0.084; self-splicing fitness (ln) (37 °C): -1.15 ± 0.11

With UUAGAGCAAUAUUACGGCCA as the sequence, how does the “self-splicing fitness (ln)” value (30 °C) read?
Its value is -1.02 ± 0.34.

And the “self-splicing fitness (ln)” value (37 °C)?
Its value is 0.756 ± 0.35.

Which “self-splicing fitness (ln)” value (30 °C) does the source give for AAGGAGCAAUAUUACGAUUG here?
Its value is -3.8 ± 0.32.

What about the “self-splicing fitness (ln)” value (37 °C) of the same sequence?
Its value is -0.948 ± 0.15.

Which “self-splicing fitness (ln)” value (30 °C) does the source give for AUGGAGCAAUAUUACGACGC here?
The value was -1.44 ± 0.16.

What about the “self-splicing fitness (ln)” value (37 °C) of the same sequence?
Its value is -0.789 ± 0.19.

For GGUCAGCAAUAUUACGUAUA, which “self-splicing fitness (ln)” value (30 °C) is on record?
The value was -1.7 ± 0.18.

What about the “self-splicing fitness (ln)” value (37 °C) of the same sequence?
The value was -0.369 ± 0.18.

With CGUGAGCAAUAUUACGUGGC as the sequence, how does the “self-splicing fitness (ln)” value (30 °C) read?
Its value is -3.73 ± 0.37.

What about the “self-splicing fitness (ln)” value (37 °C) of the same sequence?
The value was -3.16 ± 0.4.

Which results are given for CUCCAGCAAUAUUACGCGAG?
self-splicing fitness (ln) (30 °C): -2.19 ± 0.2; self-splicing fitness (ln) (37 °C): -2.94 ± 0.3

For CACAAGCAAUAUUACGAUGG, which “self-splicing fitness (ln)” value (30 °C) is on record?
The value was -0.756 ± 0.045.

What about the “self-splicing fitness (ln)” value (37 °C) of the same sequence?
The value was 0.369 ± 0.07.

For UGGCAGCAAUAUUACGCCGA, which “self-splicing fitness (ln)” value (30 °C) is on record?
The value was -0.136 ± 0.092.

And the “self-splicing fitness (ln)” value (37 °C)?
Its value is 0.134 ± 0.1.

Which “self-splicing fitness (ln)” value (30 °C) does the source give for AGUAAGCAAUAUUACGGCUU here?
Its value is -0.592 ± 0.086.

What about the “self-splicing fitness (ln)” value (37 °C) of the same sequence?
Its value is -0.0743 ± 0.11.

For GCCCAGCAAUAUUACGCGAG, which “self-splicing fitness (ln)” value (30 °C) is on record?
The value was -2.72 ± 0.11.

And the “self-splicing fitness (ln)” value (37 °C)?
Its value is -1.73 ± 0.13.

Which results are given for AUAGAGCAAUAUUACGCGCC?
self-splicing fitness (ln) (30 °C): -1.86 ± 0.32; self-splicing fitness (ln) (37 °C): -0.949 ± 0.28

With CGGCAGCAAUAUUACGCACC as the sequence, how does the “self-splicing fitness (ln)” value (30 °C) read?
Its value is -2.89 ± 0.17.

And the “self-splicing fitness (ln)” value (37 °C)?
Its value is -2.05 ± 0.23.

With UAGGAGCAAUAUUACGCCAU as the sequence, how does the “self-splicing fitness (ln)” value (30 °C) read?
The value was -3.74 ± 0.43.

What about the “self-splicing fitness (ln)” value (37 °C) of the same sequence?
The value was -2.72 ± 0.48.

With UUAGAGCAAUAUUACGGUUC as the sequence, how does the “self-splicing fitness (ln)” value (30 °C) read?
The value was -2.42 ± 0.4.

Which “self-splicing fitness (ln)” value (30 °C) does the source give for CCCAAGCAAUAUUACGUAAA here?
Its value is -4.05 ± 0.33.

And the “self-splicing fitness (ln)” value (37 °C)?
The value was -3.46 ± 0.39.

For CAUAAGCAAUAUUACGAAAA, which “self-splicing fitness (ln)” value (37 °C) is on record?
Its value is -3.32 ± 0.34.

For CCACAGCAAUAUUACGAGAU, which “self-splicing fitness (ln)” value (30 °C) is on record?
The value was -3.37 ± 0.14.

And the “self-splicing fitness (ln)” value (37 °C)?
The value was -1.65 ± 0.14.

For UCUAAGCAAUAUUACGCAUC, which “self-splicing fitness (ln)” value (30 °C) is on record?
The value was -2.99 ± 0.13.

What about the “self-splicing fitness (ln)” value (37 °C) of the same sequence?
The value was -3.33 ± 0.23.

With CGCAAGCAAUAUUACGCAGC as the sequence, how does the “self-splicing fitness (ln)” value (37 °C) read?
Its value is -2.35 ± 0.27.

Which “self-splicing fitness (ln)” value (30 °C) does the source give for UGGAAGCAAUAUUACGUAAC here?
Its value is -2.91 ± 0.33.

What about the “self-splicing fitness (ln)” value (37 °C) of the same sequence?
The value was -1.71 ± 0.26.

Which results are given for AUUCAGCAAUAUUACGGGAC?
self-splicing fitness (ln) (30 °C): -3.2 ± 0.16; self-splicing fitness (ln) (37 °C): -1.2 ± 0.12

With UACGAGCAAUAUUACGUAAG as the sequence, how does the “self-splicing fitness (ln)” value (30 °C) read?
The value was -3.58 ± 0.2.

And the “self-splicing fitness (ln)” value (37 °C)?
The value was -2.33 ± 0.19.

Which results are given for UCUUAGCAAUAUUACGCGCC?
self-splicing fitness (ln) (30 °C): -3.51 ± 0.22; self-splicing fitness (ln) (37 °C): -2.42 ± 0.22

With UCCCAGCAAUAUUACGGACC as the sequence, how does the “self-splicing fitness (ln)” value (30 °C) read?
The value was -3.42 ± 0.27.

And the “self-splicing fitness (ln)” value (37 °C)?
The value was 0.0123 ± 0.17.
